Assay [1] deals with B7RP1 used in the cynomolgus monkey T cell proliferation assay. The assay can be described thus: cell-based or functional assay.
The target of assay [2] is BAFF used in the cynomolgus monkey B cell proliferation assay. As to the kind of experiment: cell-based or functional assay.
Assay [3] addresses T1, human B7RP1-Fc fusion protein (human, UniProt O75144 19-256, limits assumed).
T1 sequence (looked up): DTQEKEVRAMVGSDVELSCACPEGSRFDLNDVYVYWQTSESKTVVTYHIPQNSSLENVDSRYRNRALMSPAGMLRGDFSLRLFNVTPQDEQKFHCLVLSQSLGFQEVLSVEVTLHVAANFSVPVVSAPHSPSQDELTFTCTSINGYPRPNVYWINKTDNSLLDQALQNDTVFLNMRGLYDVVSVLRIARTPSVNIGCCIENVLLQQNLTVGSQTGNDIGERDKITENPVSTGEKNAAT
As to the kind of experiment: cell-based or functional assay.

The target in assay [4] is T2, human B-cell activating factor (BAFF) (human, UniProt Q9Y275 134-285). As to the kind of experiment: cell-based or functional assay.
The target of assay [5] is T3, cynomolgus monkey B7RP1 (cynomolgus monkey, UniProt A0A2K5TK64 19-256).
T3 sequence: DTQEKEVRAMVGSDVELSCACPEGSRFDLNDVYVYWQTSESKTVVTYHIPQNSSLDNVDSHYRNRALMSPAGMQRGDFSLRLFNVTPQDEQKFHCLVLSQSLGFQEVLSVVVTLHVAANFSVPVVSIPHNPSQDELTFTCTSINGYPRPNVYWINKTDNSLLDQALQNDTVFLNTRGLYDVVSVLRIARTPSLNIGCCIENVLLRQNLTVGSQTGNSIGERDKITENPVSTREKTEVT
The assay can be described thus: KinExA (Kinetic Exclusion Assay). On the procedure:
(§1) The binding affinities of the heterodimeric bispecific antibodies P74293 and P74294 to BAFF and B7RP1 were measured by Kinetic Exclusion Assay (KinExA®; Sapidyne Instruments, Boise, Id.). […] In addition, both of these bispecifics have similar binding affinities to cynomolgus monkey BAFF compared to human BAFF and to cynomolgus monkey B7RP1 compared to human B7RP1.
A general note: In KinExA the mixture passes briefly over coated beads that capture the unbound partner.

Assay [6] has as its target cynomolgus monkey BAFF (cynomolgus monkey, UniProt A0A2K5V2X4 134-285). The assay can be described thus: KinExA (Kinetic Exclusion Assay). Here is the method: as §1
Assay [7] has as its target T4, human B7-related protein 1 (B7RP1) (human, UniProt O75144 19-256, limits assumed).
T4 construct: also called human B7RP1; ICOSLG
T4 sequence (looked up): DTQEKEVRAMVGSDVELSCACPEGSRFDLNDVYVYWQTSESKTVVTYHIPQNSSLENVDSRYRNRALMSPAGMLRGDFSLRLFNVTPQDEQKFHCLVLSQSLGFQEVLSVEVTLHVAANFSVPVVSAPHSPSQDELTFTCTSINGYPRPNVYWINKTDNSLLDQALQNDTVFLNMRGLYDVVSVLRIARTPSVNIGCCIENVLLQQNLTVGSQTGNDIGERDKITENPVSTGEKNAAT
As to the kind of experiment: KinExA (Kinetic Exclusion Assay). Here is the method: as §1

Assay [8] deals with T2, human B-cell activating factor (BAFF). As to the kind of experiment: KinExA (Kinetic Exclusion Assay). On the procedure:
as §1

By Kd is commonly meant the equilibrium constant for the complex coming apart.

T2 sequence (Q9Y275 134-285 limits assumed): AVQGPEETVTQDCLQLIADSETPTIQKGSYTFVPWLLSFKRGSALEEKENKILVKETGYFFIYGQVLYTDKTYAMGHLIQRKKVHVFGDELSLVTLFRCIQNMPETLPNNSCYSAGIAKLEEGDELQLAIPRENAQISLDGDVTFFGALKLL

B1: P74293 BAFF/B7RP1 bispecific molecule (bispecific antibody, human IgG2, kappa)
heavy: EVQLVESGGGLVQPGGSLRLSCAASGFTFSSYWMSWVRQAPGKGLEWVAYIKQDGNEKYYVDSVKGRFTISRDNAKNSLYLQMNSLRAEDTAVYYCAREGILWFGDLPTFWGQGTLVTVSSASTKGPSVFPLAPCSRSTSESTAALGCLVKDYFPEPVTVSWNSGALTSGVHTFPAVLQSSGLYSLSSVVTVPSSNFGTQTYTCNVDHKPSNTKVDKTVERKCCVECPPCPAPPVAGPSVFLFPPKPKDTLMISRTPEVTCVVVDVSHEDPEVQFNWYVDGVEVHNAKTKPREEQFNSTFRVVSVLTVVHQDWLNGKEYKCKVSNKGLPAPIEKTISKTKGQPREPQVYTLPPSREEMTKNQVSLTCLVKGFYPSDIAVEWESNGQPENNYKTTPPMLDSDGSFFLYSKLTVDKSRWQQGNVFSCSVMHEALHNHYTQKSLSLSPGKGGGGGLPGCKWDLLIKQWVCDPLGSGSATGGSGSVASSGSGSATHLLPGCKWDLLIKQWVCDPL
light: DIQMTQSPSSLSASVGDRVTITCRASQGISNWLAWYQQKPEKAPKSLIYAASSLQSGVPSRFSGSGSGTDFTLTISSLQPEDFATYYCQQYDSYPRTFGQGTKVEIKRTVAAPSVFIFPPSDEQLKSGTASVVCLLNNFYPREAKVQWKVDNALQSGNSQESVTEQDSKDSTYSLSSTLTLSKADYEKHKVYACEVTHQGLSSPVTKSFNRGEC
notes: also called anti-BAFF/B7RP1 bispecific P74293
Take B1: the “IC50 (nM) for inhibition of B7RP1-mediated cynomolgus monkey T cell proliferation” value in assay [1] amounted to 0.29 nM. Besides, the “IC50 (nM) for inhibition of BAFF-mediated cynomolgus monkey B cell proliferation” value in assay [2] turned out to be 1.6 nM. In addition, in assay [3], the “IC50 (nM) for inhibition of B7RP1-mediated human T cell proliferation” value amounted to 1.36 nM. For the same molecule, in assay [4], the “IC50 (nM) for inhibition of BAFF-mediated human B cell proliferation” value is 0.86 nM. For the same molecule, the equilibrium dissociation constant (Kd) was 0.0494 nM in assay [5], 0.0223 nM in assay [6], 0.038 nM in assay [7] and 0.029 nM in assay [8].

B2: P74294 BAFF/B7RP1 bispecific molecule (bispecific antibody, human IgG2, kappa)
heavy: EVQLVESGGGLVQPGGSLRLSCAASGFTFSSYWMSWVRQAPGKGLEWVAYIKQDGNEKYYVDSVKGRFTISRDNAKNSLYLQMNSLRAEDTAVYYCAREGILWFGDLPTFWGQGTLVTVSSASTKGPSVFPLAPCSRSTSESTAALGCLVKDYFPEPVTVSWNSGALTSGVHTFPAVLQSSGLYSLSSVVTVPSSNFGTQTYTCNVDHKPSNTKVDKTVERKCCVECPPCPAPPVAGPSVFLFPPKPKDTLMISRTPEVTCVVVDVSHEDPEVQFNWYVDGVEVHNAKTKPREEQFNSTFRVVSVLTVVHQDWLNGKEYKCKVSNKGLPAPIEKTISKTKGQPREPQVYTLPPSREEMTKNQVSLTCLVKGFYPSDIAVEWESNGQPENNYKTTPPMLDSDGSFFLYSKLTVDKSRWQQGNVFSCSVMHEALHNHYTQKSLSLSPGKGGGGGLPGCKWDLLIKQWVCDPLGSGSATGGSGSSASSGSGSATHLLPGCKWDLLIKQWVCDPL
light: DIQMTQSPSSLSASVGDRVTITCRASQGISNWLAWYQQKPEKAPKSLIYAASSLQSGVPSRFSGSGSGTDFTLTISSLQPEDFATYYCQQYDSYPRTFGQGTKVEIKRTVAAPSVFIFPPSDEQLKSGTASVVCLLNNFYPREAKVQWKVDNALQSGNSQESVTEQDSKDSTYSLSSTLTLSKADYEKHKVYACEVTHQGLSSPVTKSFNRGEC
notes: variant of P71619 with a modified linker
As for B2, the “IC50 (nM) for inhibition of BAFF-mediated cynomolgus monkey B cell proliferation” value in assay [2] came to 1.8 nM. Besides, the “IC50 (nM) for inhibition of B7RP1-mediated human T cell proliferation” value in assay [3] was 0.98 nM. In addition, the “IC50 (nM) for inhibition of BAFF-mediated human B cell proliferation” value in assay [4] was determined as 0.96 nM. The Kd was 0.0452 nM in assay [5], 0.0174 nM in assay [6], 0.041 nM in assay [7] and 0.037 nM in assay [8].

(Values after patent publication US20210206881A1 (Amgen, published 2021).)
